US20140087995A1 (published 2014)
Numbered stars: 1 amine (or outer) side, 2 acyl side, 3 side chain; on linkers, the order of the positions; unused ones are H or OH. Bridge positions count the residues as written; N and C are the ends. Side chains are listed from the residue outwards. Ends that are not written are not given here. * marks the point of attachment. C20 diacid = O=C(O)CCCCCCCCCCCCCCCCCCC(=O)*; γGlu = O=C(O)[C@H](CCC(=O)[*:2])N[*:1]; AEEA = NCCOCCOCC(=O)O

T1: human amylin receptor (human, UniProt P30988 25-474; O60896 24-148, limits assumed)
T1 construct: whole, on cells; Calcitonin receptor plus RAMP-3 gives the amylin 3(a) receptor; membranes of Amylin 3(a)/CRE-luc cells were used; also called hAmylin-R; hAmylinR
T1 sequence (looked up) 1: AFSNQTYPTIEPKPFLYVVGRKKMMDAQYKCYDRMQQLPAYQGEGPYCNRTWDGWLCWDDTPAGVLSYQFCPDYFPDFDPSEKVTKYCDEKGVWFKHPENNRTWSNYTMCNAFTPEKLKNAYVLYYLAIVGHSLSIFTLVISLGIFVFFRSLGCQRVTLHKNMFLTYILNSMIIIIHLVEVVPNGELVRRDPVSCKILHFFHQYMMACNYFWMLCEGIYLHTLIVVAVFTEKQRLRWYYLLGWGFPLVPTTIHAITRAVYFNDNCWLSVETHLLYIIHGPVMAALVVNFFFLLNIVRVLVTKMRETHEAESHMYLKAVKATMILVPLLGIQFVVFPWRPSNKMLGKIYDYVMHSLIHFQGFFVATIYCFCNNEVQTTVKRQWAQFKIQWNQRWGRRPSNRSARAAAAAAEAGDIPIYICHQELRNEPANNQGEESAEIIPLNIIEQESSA
T1 sequence (looked up) 2: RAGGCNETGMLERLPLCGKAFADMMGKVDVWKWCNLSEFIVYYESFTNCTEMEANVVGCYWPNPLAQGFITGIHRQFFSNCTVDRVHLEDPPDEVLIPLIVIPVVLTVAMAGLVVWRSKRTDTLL


The binders below were run against T1, human amylin receptor (assay: SPA competition binding, displacement of 125I-rat amylin from membranes with human amylin 3(a) receptor (Assay V)).
Summary of the method: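 SPA beads with BHK Amylin 3(a)/CRE-luc cell membranes (35 ng/μL final) in 50 mM Hepes pH 7.4, 1 mM CaCl2, 5 mM MgCl₂, 0.1% OA, 0.02% Tween20.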

| IC50 [nM] | Binder |
| --- | --- |
| 0.088 | K([AEEA-γGlu-C20 diacid])CNTATCATQRLANFLRHSSPNFGAIPSSTNVGPHTY-NH2 (disulfide 2-7; N-terminus assumed; SMILES CC[C@H](C)[C@H](NC(=O)[C@H](C)NC(=O)CNC(=O)[C@H](Cc1ccccc1)NC(=O)[C@H](CC(N)=O)NC(=O)[C@@H]1CCCN1C(=O)[C@H](CO)NC(=O)[C@H](CO)NC(=O)[C@H](Cc1c[nH]cn1)NC(=O)[C@H](CCCNC(=N)N)NC(=O)[C@H](CC(C)C)NC(=O)[C@H](Cc1ccccc1)NC(=O)[C@H](CC(N)=O)NC(=O)[C@H](C)NC(=O)[C@H](CC(C)C)NC(=O)[C@H](CCCNC(=N)N)NC(=O)[C@H](CCC(N)=O)NC(=O)[C@@H](NC(=O)[C@H](C)NC(=O)[C@@H]1CSSC[C@H](NC(=O)[C@@H](N)CCCCNC(=O)COCCOCCNC(=O)CC[C@H](NC(=O)CCCCCCCCCCCCCCCCCCC(=O)O)C(=O)O)C(=O)N[C@@H](CC(N)=O)C(=O)N[C@@H]([C@@H](C)O)C(=O)N[C@@H](C)C(=O)N[C@@H]([C@@H](C)O)C(=O)N1)[C@@H](C)O)C(=O)N1CCC[C@H]1C(=O)N[C@@H](CO)C(=O)N[C@@H](CO)C(=O)N[C@H](C(=O)N[C@@H](CC(N)=O)C(=O)N[C@H](C(=O)NCC(=O)N1CCC[C@H]1C(=O)N[C@@H](Cc1c[nH]cn1)C(=O)N[C@H](C(=O)N[C@@H](Cc1ccc(O)cc1)C(N)=O)[C@@H](C)O)C(C)C)[C@@H](C)O, also called 17R, 21P, 27P, 34P, 35H) |
| 0.048 | K([AEEA-γGlu-C20 diacid])CNTATCATQRLAGFLRHSSPNFGAIPSSTPVGSNTY-NH2 (disulfide 2-7; N-terminus assumed; SMILES CC[C@H](C)[C@H](NC(=O)[C@H](C)NC(=O)CNC(=O)[C@H](Cc1ccccc1)NC(=O)[C@H](CC(N)=O)NC(=O)[C@@H]1CCCN1C(=O)[C@H](CO)NC(=O)[C@H](CO)NC(=O)[C@H](Cc1c[nH]cn1)NC(=O)[C@H](CCCNC(=N)N)NC(=O)[C@H](CC(C)C)NC(=O)[C@H](Cc1ccccc1)NC(=O)CNC(=O)[C@H](C)NC(=O)[C@H](CC(C)C)NC(=O)[C@H](CCCNC(=N)N)NC(=O)[C@H](CCC(N)=O)NC(=O)[C@@H](NC(=O)[C@H](C)NC(=O)[C@@H]1CSSC[C@H](NC(=O)[C@@H](N)CCCCNC(=O)COCCOCCNC(=O)CC[C@H](NC(=O)CCCCCCCCCCCCCCCCCCC(=O)O)C(=O)O)C(=O)N[C@@H](CC(N)=O)C(=O)N[C@@H]([C@@H](C)O)C(=O)N[C@@H](C)C(=O)N[C@@H]([C@@H](C)O)C(=O)N1)[C@@H](C)O)C(=O)N1CCC[C@H]1C(=O)N[C@@H](CO)C(=O)N[C@@H](CO)C(=O)N[C@H](C(=O)N1CCC[C@H]1C(=O)N[C@H](C(=O)NCC(=O)N[C@@H](CO)C(=O)N[C@@H](CC(N)=O)C(=O)N[C@H](C(=O)N[C@@H](Cc1ccc(O)cc1)C(N)=O)[C@@H](C)O)C(C)C)[C@@H](C)O, also called 14G, 17R, 21P, 27P, 31P) |
| 0.743 | K([AEEA-γGlu-C20 diacid])CNTATCATQRLAHFLRHSSPNFGAIPSSTNVGRNTY-NH2 (disulfide 2-7; N-terminus assumed; SMILES CC[C@H](C)[C@H](NC(=O)[C@H](C)NC(=O)CNC(=O)[C@H](Cc1ccccc1)NC(=O)[C@H](CC(N)=O)NC(=O)[C@@H]1CCCN1C(=O)[C@H](CO)NC(=O)[C@H](CO)NC(=O)[C@H](Cc1c[nH]cn1)NC(=O)[C@H](CCCNC(=N)N)NC(=O)[C@H](CC(C)C)NC(=O)[C@H](Cc1ccccc1)NC(=O)[C@H](Cc1c[nH]cn1)NC(=O)[C@H](C)NC(=O)[C@H](CC(C)C)NC(=O)[C@H](CCCNC(=N)N)NC(=O)[C@H](CCC(N)=O)NC(=O)[C@@H](NC(=O)[C@H](C)NC(=O)[C@@H]1CSSC[C@H](NC(=O)[C@@H](N)CCCCNC(=O)COCCOCCNC(=O)CC[C@H](NC(=O)CCCCCCCCCCCCCCCCCCC(=O)O)C(=O)O)C(=O)N[C@@H](CC(N)=O)C(=O)N[C@@H]([C@@H](C)O)C(=O)N[C@@H](C)C(=O)N[C@@H]([C@@H](C)O)C(=O)N1)[C@@H](C)O)C(=O)N1CCC[C@H]1C(=O)N[C@@H](CO)C(=O)N[C@@H](CO)C(=O)N[C@H](C(=O)N[C@@H](CC(N)=O)C(=O)N[C@H](C(=O)NCC(=O)N[C@@H](CCCNC(=N)N)C(=O)N[C@@H](CC(N)=O)C(=O)N[C@H](C(=O)N[C@@H](Cc1ccc(O)cc1)C(N)=O)[C@@H](C)O)C(C)C)[C@@H](C)O, also called 14H, 17R, 21P, 27P, 34R) |
| 0.122 | K([AEEA-γGlu-C20 diacid])CNTATCATQRLAHFLRHSSPNFGAIPSSTPVGSNTY-NH2 (disulfide 2-7; N-terminus assumed; SMILES CC[C@H](C)[C@H](NC(=O)[C@H](C)NC(=O)CNC(=O)[C@H](Cc1ccccc1)NC(=O)[C@H](CC(N)=O)NC(=O)[C@@H]1CCCN1C(=O)[C@H](CO)NC(=O)[C@H](CO)NC(=O)[C@H](Cc1c[nH]cn1)NC(=O)[C@H](CCCNC(=N)N)NC(=O)[C@H](CC(C)C)NC(=O)[C@H](Cc1ccccc1)NC(=O)[C@H](Cc1c[nH]cn1)NC(=O)[C@H](C)NC(=O)[C@H](CC(C)C)NC(=O)[C@H](CCCNC(=N)N)NC(=O)[C@H](CCC(N)=O)NC(=O)[C@@H](NC(=O)[C@H](C)NC(=O)[C@@H]1CSSC[C@H](NC(=O)[C@@H](N)CCCCNC(=O)COCCOCCNC(=O)CC[C@H](NC(=O)CCCCCCCCCCCCCCCCCCC(=O)O)C(=O)O)C(=O)N[C@@H](CC(N)=O)C(=O)N[C@@H]([C@@H](C)O)C(=O)N[C@@H](C)C(=O)N[C@@H]([C@@H](C)O)C(=O)N1)[C@@H](C)O)C(=O)N1CCC[C@H]1C(=O)N[C@@H](CO)C(=O)N[C@@H](CO)C(=O)N[C@H](C(=O)N1CCC[C@H]1C(=O)N[C@H](C(=O)NCC(=O)N[C@@H](CO)C(=O)N[C@@H](CC(N)=O)C(=O)N[C@H](C(=O)N[C@@H](Cc1ccc(O)cc1)C(N)=O)[C@@H](C)O)C(C)C)[C@@H](C)O, also called 14H, 17R, 21P, 27P, 31P) |
| 0.038 | K([AEEA-γGlu-C20 diacid])CNTATCATQRLANFLRHSSPNFGAIPSSTNVGPNTY-NH2 (disulfide 2-7; N-terminus assumed; SMILES CC[C@H](C)[C@H](NC(=O)[C@H](C)NC(=O)CNC(=O)[C@H](Cc1ccccc1)NC(=O)[C@H](CC(N)=O)NC(=O)[C@@H]1CCCN1C(=O)[C@H](CO)NC(=O)[C@H](CO)NC(=O)[C@H](Cc1c[nH]cn1)NC(=O)[C@H](CCCNC(=N)N)NC(=O)[C@H](CC(C)C)NC(=O)[C@H](Cc1ccccc1)NC(=O)[C@H](CC(N)=O)NC(=O)[C@H](C)NC(=O)[C@H](CC(C)C)NC(=O)[C@H](CCCNC(=N)N)NC(=O)[C@H](CCC(N)=O)NC(=O)[C@@H](NC(=O)[C@H](C)NC(=O)[C@@H]1CSSC[C@H](NC(=O)[C@@H](N)CCCCNC(=O)COCCOCCNC(=O)CC[C@H](NC(=O)CCCCCCCCCCCCCCCCCCC(=O)O)C(=O)O)C(=O)N[C@@H](CC(N)=O)C(=O)N[C@@H]([C@@H](C)O)C(=O)N[C@@H](C)C(=O)N[C@@H]([C@@H](C)O)C(=O)N1)[C@@H](C)O)C(=O)N1CCC[C@H]1C(=O)N[C@@H](CO)C(=O)N[C@@H](CO)C(=O)N[C@H](C(=O)N[C@@H](CC(N)=O)C(=O)N[C@H](C(=O)NCC(=O)N1CCC[C@H]1C(=O)N[C@@H](CC(N)=O)C(=O)N[C@H](C(=O)N[C@@H](Cc1ccc(O)cc1)C(N)=O)[C@@H](C)O)C(C)C)[C@@H](C)O, also called 17R, 21P, 27P, 34P) |
| 0.29 | K([AEEA-γGlu-C20 diacid])CNTATCATQRLAHFLRHSSPNFGAIPSSTNVGHNTY-NH2 (disulfide 2-7; N-terminus assumed; SMILES CC[C@H](C)[C@H](NC(=O)[C@H](C)NC(=O)CNC(=O)[C@H](Cc1ccccc1)NC(=O)[C@H](CC(N)=O)NC(=O)[C@@H]1CCCN1C(=O)[C@H](CO)NC(=O)[C@H](CO)NC(=O)[C@H](Cc1c[nH]cn1)NC(=O)[C@H](CCCNC(=N)N)NC(=O)[C@H](CC(C)C)NC(=O)[C@H](Cc1ccccc1)NC(=O)[C@H](Cc1c[nH]cn1)NC(=O)[C@H](C)NC(=O)[C@H](CC(C)C)NC(=O)[C@H](CCCNC(=N)N)NC(=O)[C@H](CCC(N)=O)NC(=O)[C@@H](NC(=O)[C@H](C)NC(=O)[C@@H]1CSSC[C@H](NC(=O)[C@@H](N)CCCCNC(=O)COCCOCCNC(=O)CC[C@H](NC(=O)CCCCCCCCCCCCCCCCCCC(=O)O)C(=O)O)C(=O)N[C@@H](CC(N)=O)C(=O)N[C@@H]([C@@H](C)O)C(=O)N[C@@H](C)C(=O)N[C@@H]([C@@H](C)O)C(=O)N1)[C@@H](C)O)C(=O)N1CCC[C@H]1C(=O)N[C@@H](CO)C(=O)N[C@@H](CO)C(=O)N[C@H](C(=O)N[C@@H](CC(N)=O)C(=O)N[C@H](C(=O)NCC(=O)N[C@@H](Cc1c[nH]cn1)C(=O)N[C@@H](CC(N)=O)C(=O)N[C@H](C(=O)N[C@@H](Cc1ccc(O)cc1)C(N)=O)[C@@H](C)O)C(C)C)[C@@H](C)O, also called 14H, 17R, 21P, 27P, 34H) |
